# System: T1, MKI-EGFP fusion protein
# T1 sequence: FPLKRHDKVDDLSK
substance,measurement,value
MARK4 (PAR-1/MARK kinases) acting on tau in rat hippocampal neurons,"phosphorylation of endogenous tau at the 12E8 sites in rat hippocampal neurons, Western blot",expression of an MKI-GFP fusion protein in rat hippocampal neurons effectively attenuated MARK4-mediated phosphorylation of both endogenous tau (FIG. 3A) and transfected human tau at the 12E8 sites (FIG. 3B)
same,"phosphorylation of transfected HA-tagged human tau at the 12E8 sites in rat hippocampal neurons, immunostaining",expression of an MKI-GFP fusion protein in rat hippocampal neurons effectively attenuated MARK4-mediated phosphorylation of both endogenous tau (FIG. 3A) and transfected human tau at the 12E8 sites (FIG. 3B)
AMP-activated kinase (AMPK),"phosphorylation of acetyl-CoA carboxylase (ACC) by AMPK in rat hippocampal neurons, pACC (Ser79) antibody",MKI-EGFP did not affect the phosphorylation of acetyl-CoA carboxylase (ACC) by AMP-activated kinase (AMPK)

# Reference: US20160030510
